Reference: patent US20110166064A1

Biological target: Insulin-like Growth Factor I Receptor (IGF-1R) (UniProt P08069)
Experiment: competitive displacement of 125I-IGF-I from IGF-1R, FIG. 9B

Sequence of Insulin-like Growth Factor I Receptor (IGF-1R) (P08069 31-1367 limits assumed): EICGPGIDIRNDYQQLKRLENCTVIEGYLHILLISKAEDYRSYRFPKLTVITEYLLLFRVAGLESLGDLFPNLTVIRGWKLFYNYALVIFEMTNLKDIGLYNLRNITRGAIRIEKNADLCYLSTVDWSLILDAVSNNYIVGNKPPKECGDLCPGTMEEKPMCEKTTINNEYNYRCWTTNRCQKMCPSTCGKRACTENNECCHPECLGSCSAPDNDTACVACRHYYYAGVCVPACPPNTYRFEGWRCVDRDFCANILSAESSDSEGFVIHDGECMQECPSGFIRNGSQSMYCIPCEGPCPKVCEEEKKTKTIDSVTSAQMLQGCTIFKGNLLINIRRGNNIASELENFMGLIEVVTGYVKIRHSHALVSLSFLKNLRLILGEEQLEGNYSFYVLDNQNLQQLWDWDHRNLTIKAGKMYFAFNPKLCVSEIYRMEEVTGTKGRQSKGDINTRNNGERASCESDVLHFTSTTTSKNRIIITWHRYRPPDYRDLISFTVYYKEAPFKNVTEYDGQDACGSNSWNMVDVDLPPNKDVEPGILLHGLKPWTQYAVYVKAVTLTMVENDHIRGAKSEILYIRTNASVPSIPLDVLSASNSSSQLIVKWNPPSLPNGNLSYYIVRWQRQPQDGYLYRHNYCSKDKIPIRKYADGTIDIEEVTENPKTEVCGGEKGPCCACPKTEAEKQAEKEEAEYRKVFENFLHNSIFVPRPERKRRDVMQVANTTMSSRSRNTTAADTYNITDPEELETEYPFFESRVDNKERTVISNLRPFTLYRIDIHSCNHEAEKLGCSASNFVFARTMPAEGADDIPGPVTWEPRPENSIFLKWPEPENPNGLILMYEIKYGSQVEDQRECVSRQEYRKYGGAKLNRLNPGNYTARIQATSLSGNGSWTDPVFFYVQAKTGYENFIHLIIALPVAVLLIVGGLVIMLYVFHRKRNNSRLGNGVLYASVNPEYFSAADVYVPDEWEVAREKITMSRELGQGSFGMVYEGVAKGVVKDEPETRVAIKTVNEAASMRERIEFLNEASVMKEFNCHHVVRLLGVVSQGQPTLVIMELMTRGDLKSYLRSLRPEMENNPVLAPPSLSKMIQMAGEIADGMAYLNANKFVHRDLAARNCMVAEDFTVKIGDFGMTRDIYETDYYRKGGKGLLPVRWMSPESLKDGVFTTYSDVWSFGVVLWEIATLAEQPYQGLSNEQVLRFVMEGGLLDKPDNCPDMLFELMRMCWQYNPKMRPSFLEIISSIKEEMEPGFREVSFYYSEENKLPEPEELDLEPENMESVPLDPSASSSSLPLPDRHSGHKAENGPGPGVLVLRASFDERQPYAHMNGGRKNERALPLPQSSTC

- fold reduction of cross-binding relative to KP-insulin or wild-type insulin: 3 fold
Substance: 4Cl-Phe^B24-KP-insulin (ligand; para-monochloro-phenylalanine (4Cl-Phe) at B24; other documents disagree on this pair)
